From patent publication US20150231240A1, “ANTI-C16ORF54 ANTIBODIES AND METHODS OF USE THEREOF” (priority 2012, published 2015) come the findings set out here.

Residue numbers refer to the chain shown, from its start.

The target in test [1] is T1, N-terminal 32 amino acids of huC16orf54 (Homo sapiens, UniProt Q6UWD8).
T1 sequence (Q6UWD8 1-32 limits assumed): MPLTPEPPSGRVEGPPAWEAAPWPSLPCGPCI
The experiment in a line: Affinity measurements of purified antibodies on OctetQK384. The test is classed as binding. To be noted: purified antibody, streptavidin sensors coated with N-terminal 32 amino acids of huC16orf54 coupled to biotin. As for the experimental part:
Affinity measurements of purified anti-huC16orf54 antibodies were carried out on the OctetQK384® sytem (ForteBio). After coating streptavidin sensors with the N-terminal 32 amino acids of huC16orf54 coupled to biotin at the C-terminus, association and dissociation of purified anti-huC16orf54 antibodies was monitored. KD values were derived using ForteBio's software.

For test [2], the target named is T2, C16orf54 in cells and human tissues (Homo sapiens, UniProt Q6UWD8).
T2 construct: from tissue; host or cells: isolated hematological tumour cells (lymphoma, AML, CLL) and human tissues, OCT-embedded frozen sections
T2 sequence (Q6UWD8 1-224): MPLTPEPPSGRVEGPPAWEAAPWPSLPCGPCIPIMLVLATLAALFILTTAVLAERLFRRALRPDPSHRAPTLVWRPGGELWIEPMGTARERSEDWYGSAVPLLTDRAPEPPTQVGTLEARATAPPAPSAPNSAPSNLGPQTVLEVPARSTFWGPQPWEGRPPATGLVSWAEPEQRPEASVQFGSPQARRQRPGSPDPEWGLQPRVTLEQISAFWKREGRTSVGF
Nature of the test: Human C16orf54 immunohistochemistry (IHC). The test is classed as binding. The procedure: Anti-C16orf54 antibodies were used to detect C16orf54 expression as analyzed by immunohistochemistry (IHC). The transfected cell lines (5×10^7) and isolated hematological diseased cells were washed in PBS, centrifuged at 300 g for 10 minutes and the resultant cell pellets embedded and frozen in Tissue-Tek OCT compound (commercially available, e.g., Sakura Finetek USA, Inc., Torrence, Calif.; Fisher Scientific USA). 8 μm cryostat sections of the OCT embedded cells and human tissues were post-fixed in a 75% ethanol, 25% acetone mixture for 5 minutes followed by washing in PBS. The slides were then stained with exemplary primary anti-C16orf54 antibodies on a Dako Autostainer using standard avidin-biotin complex (ABC) IHC procedures. In some experiments, the endogenous peroxidase activity was blocked using Bloxall reagent (Vector SP-6000) for 5 minutes followed by avidin/biotin blocking reagents (Vector SP-2001) to block endogenous biotin within tissues. A pre-incubation with a protein blocker (Dako X0909) was performed followed by the primary antibodies incubation for 1 hour at room temperature. In some experiments, primary antibody 7-1C was diluted to a final concentration of 5 μg/ml and primary antibody 67-7A was diluted to a final concentration of 10 μg/ml using antibody diluent (Dako S3022). The control antibody used was a pan-mouse IgG antibody (Life Technologies 08-6599). In some experiments, after washing in PBS, the slides were incubated with a biotinylated horse anti-mouse antibody 1:200 (Vector BA-2001) for 30 minutes followed by a universal streptavidin-peroxidase conjugate (ABC-HRP Vector PK-6100) for 30 minutes. Diaminobenzedine was used as the chromagen (Sigma D5909) and the slides were counterstained with Mayers hematoxylin for 5 minutes, followed by dehydration and coverslipping.

Test [3] concerns the target T3, human C16orf54 (human, UniProt Q6UWD8 1-224).
T3 construct: also called huC16orf54; hC16orf54
T3 sequence: T2 sequence (Q6UWD8 1-224)
Nature of the test: flow cytometry, SW1990 pancreatic cancer cells (endogenous C16orf54), 3 repeats. (In flow cytometry, cells or beads pass a laser one at a time.)

The target of test [4] is T3, human C16orf54. Nature of the test: flow cytometry, CFPAC-1 pancreatic cancer cells (endogenous C16orf54), 3 repeats.
The target in test [5] is T3, human C16orf54. The experiment in a line: flow cytometry, Granta-519 lymphoma cells (endogenous C16orf54), 1 repeat.
The target in test [6] is T4, Human C16-ECD peptide (aa1-31) (human).
T4 construct: Coated on plates in the peptide ELISA; also called human extracellular domain peptide
T4 peptide: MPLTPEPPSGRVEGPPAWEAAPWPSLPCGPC
The experiment in a line: column head 'Full kinetics (nM)' in the table of the C16orf54 peptide binding assays; method and antigen not described; 4 runs.

Test [7] deals with T3, human C16orf54. The experiment in a line: flow cytometry, WSU-DLCL2 lymphoma cells (endogenous C16orf54), 1 repeat.
For test [8], the target named is T3, human C16orf54. Nature of the test: flow cytometry, NCI-H716 colon cancer cells (endogenous C16orf54), 2 repeats.

B1: R29-7-1C: murine anti-C16orf54 monoclonal antibody, IgG2a; VH SEQ ID NO: 8, VL SEQ ID NO: 10 (antibody, V domains shown)
VH: MRVLILLWLFTAFPGILSDVQLQESGPGLVKPSQSLSLTCTVTGYSITSDYAWNWIRQFPGNKLEWMGYISYSGSIRYNPSLKSRISITRDTSKNQFFLQLNSVTTEDTATYYCAREKYDNYYYAMDYWGQGTSVTVSS
VL: MDSQAQVLMLLLLWVSGTCGDIVMSQSPSSLAVSVGEKVTLSCKSSQNLLYSTNQKNYLAWYQQKPGQSPKLLIYWASTRESGVPDRFTGSGSGTDFTLTISSVKAEDLAVYYCQQYYSYRTFGGGTKLEIK
modifications: R29-7-1C heavy chain variable region; R29-7-1C light chain variable region
Usually kon stands for a measure of how fast the partners come together. In the case of B1, in test [1], the kdis was determined as 7.95e-05 ± 8.9e-06 s⁻¹ and the kon came to 68100 ± 6200 M⁻¹ s⁻¹.

B2: R29-67-7A: murine anti-C16orf54 monoclonal antibody, IgG2a; VH SEQ ID NO: 12, VL SEQ ID NO: 14 (antibody, V domains shown)
VH: B1 VH with S71N, S75R, I76T, K83N, I88L, K94T, K118N, N121Y, Y122E, Y123F
VL: B1 VL with D2E, L41M, T53S, S119I
modifications: R29-67-7A heavy chain variable region; R29-67-7A light chain variable region
For B2, the “C16orf54 (67-7A) IHC” value in test [2] (AML sample AML-183L), in test [2] (AML sample AML-205L), in test [2] (AML sample AML-211L), in test [2] (AML sample AML-213L), in test [2] (CLL sample CLL-408L) and in test [2] (CLL sample CLL-BC042) was “Positive” throughout. In addition, the “C16orf54 (67-7A) IHC” value in test [2] (CLL sample CLL-BC043), in test [2] (CLL sample CLL-UF048), in test [2] (Lymphoma sample MD00402), in test [2] (Lymphoma sample OD39986), in test [2] (Lymphoma sample OD41079) and in test [2] (Lymphoma sample OD41411) was “Positive” each time. For the same molecule, the “C16orf54 (67-7A) IHC” value in test [2] (Lymphoma sample WD3517) is listed as “Positive”. Further, the “IHC staining of hematological tumors” value in test [2] (frozen sections, 10 μg/ml primary antibody) is “confirm the C16orf54 IHC expression in hematological tumors”.

B3: R29-7-1C (antibody, V domains shown)
VH: DVQLQESGPGLVKPSQSLSLTCTVTGYSITSDYAWNWIRQFPGNKLEWMGYISYSGSIRYNPSLKSRISITRDTSKNQFFLQLNSVTTEDTATYYCAREKYDNYYYAMDYWGQGTSVTVSS
VL: DIVMSQSPSSLAVSVGEKVTLSCKSSQNLLYSTNQKNYLAWYQQKPGQSPKLLIYWASTRESGVPDRFTGSGSGTDFTLTISSVKAEDLAVYYCQQYYSYRTFGGGTKLEIK
notes: Murine monoclonal IgG2a from a hybridoma
In general, Kd refers to the concentration at which binding is half-saturated. B3: the “Average MFI fold change relative to isotype control” value worked out at 1.9 fold with human C16orf54 [3]; 1.6 fold with human C16orf54 [4]; 3.8 fold in the test with human C16orf54 [5]; 9.2 fold with human C16orf54 [7]; 3.4 fold with human C16orf54 [8]. The molecule also displayed a Kd in test [6] of 0.77 nM.
